According to patent US8455205B2, “Metalloproteinase 9 binding proteins” (Dyax Corp., priority 2008, dated 2013):
Entries after “also recorded” stand apart in the source; their conditions may differ.

T1: human MMP-2 (Homo sapiens, UniProt P08253)
T1 construct: purchased BIOMOL MMP MultiPack-1
T1 sequence (P08253 110-660): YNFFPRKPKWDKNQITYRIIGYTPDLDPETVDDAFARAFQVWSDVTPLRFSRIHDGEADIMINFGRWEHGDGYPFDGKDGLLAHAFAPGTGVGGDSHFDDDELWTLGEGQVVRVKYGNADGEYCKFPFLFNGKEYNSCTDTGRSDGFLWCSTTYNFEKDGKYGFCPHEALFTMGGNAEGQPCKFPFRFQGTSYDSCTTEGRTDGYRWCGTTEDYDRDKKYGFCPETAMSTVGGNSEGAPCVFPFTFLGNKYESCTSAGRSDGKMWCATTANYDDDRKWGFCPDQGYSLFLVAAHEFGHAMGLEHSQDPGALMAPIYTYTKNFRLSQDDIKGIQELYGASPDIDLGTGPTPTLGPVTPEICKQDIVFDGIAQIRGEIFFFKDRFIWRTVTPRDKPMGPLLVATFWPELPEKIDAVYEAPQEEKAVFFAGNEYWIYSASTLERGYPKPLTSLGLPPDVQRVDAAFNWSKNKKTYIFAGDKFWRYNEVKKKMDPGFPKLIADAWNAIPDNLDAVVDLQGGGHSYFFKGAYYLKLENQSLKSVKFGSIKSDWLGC


Columns and labels:
MMP-9 [1] = target: T2, MMP-9 (Homo sapiens, UniProt P14780); experiment: Affinity ranking of Fabs by BIACORE Flexchip (SPR); type: binding
Source text: Surface Plasmon Resonance (SPR). The interaction of binding protein and a target can be analyzed using SPR. SPR or Biomolecular Interaction Analysis (BIA) detects biospecific interactions in real time, without labeling any of the interactants. Changes in the mass at the binding surface (indicative of a binding event) of the BIA chip result in alterations of the refractive index of light near the surface (the optical phenomenon of surface plasmon resonance (SPR)). The changes in the refractivity generate a detectable signal, which are measured as an indication of real-time reactions between biological molecules. Methods for using SPR are described, for example, in U.S. Pat. No. 5,641,640; Raether, 1988, Surface Plasmons Springer Verlag; Sjolander and Urbaniczky, 1991, Anal. Chem. 63:2338-2345; Szabo et al., 1995, Curr. Opin. Struct. Biol. 5:699-705 and on-line resources provide by BIAcore International AB (Uppsala, Sweden). BIAcore Flexchip can be used to compare and rank interactions in real time, in terms of kinetics, affinity or specificity without the use of labels.
Information from SPR can be used to provide an accurate and quantitative measure of the equilibrium dissociation constant (Kd), and kinetic parameters, including Kon and Koff, for the binding of a binding protein to a target. Such data can be used to compare different biomolecules. For example, selected proteins from an expression library can be compared to identify proteins that have high affinity for the target or that have a slow Koff. This information can also be used to develop structure-activity relationships (SAR). For example, the kinetic and equilibrium binding parameters of matured versions of a parent protein can be compared to the parameters of the parent protein. Variant amino acids at given positions can be identified that correlate with particular binding parameters, e.g., high affinity and slow Koff. This information can be combined with structural modeling (e.g., using homology modeling, energy minimization, or structure determination by x-ray crystallography or NMR). […]
Target sequence in this assay (P14780 94-707): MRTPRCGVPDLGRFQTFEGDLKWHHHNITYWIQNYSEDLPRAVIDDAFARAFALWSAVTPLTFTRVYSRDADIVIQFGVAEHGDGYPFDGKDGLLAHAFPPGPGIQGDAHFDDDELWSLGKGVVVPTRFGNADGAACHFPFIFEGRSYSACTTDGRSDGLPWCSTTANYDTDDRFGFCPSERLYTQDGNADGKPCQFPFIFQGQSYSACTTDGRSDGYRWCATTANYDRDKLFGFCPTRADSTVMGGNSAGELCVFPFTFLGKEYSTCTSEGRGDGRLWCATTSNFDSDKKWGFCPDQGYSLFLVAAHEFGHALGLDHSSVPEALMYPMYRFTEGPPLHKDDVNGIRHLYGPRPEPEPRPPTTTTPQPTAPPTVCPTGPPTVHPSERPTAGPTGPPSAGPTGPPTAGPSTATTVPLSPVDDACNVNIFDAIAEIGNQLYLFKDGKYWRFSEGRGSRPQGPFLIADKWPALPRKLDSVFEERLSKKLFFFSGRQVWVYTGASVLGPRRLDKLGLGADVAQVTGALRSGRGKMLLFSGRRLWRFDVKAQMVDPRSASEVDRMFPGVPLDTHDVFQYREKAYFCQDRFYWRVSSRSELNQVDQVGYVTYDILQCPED

mouse MMP-9 = target: T3, mouse MMP-9 (Mus musculus, UniProt P41245); experiment: Inhibition of mouse MMP-9 activity, fluorogenic substrate; type: biochemical
T3 construct: purchased R&D 909-MM
Source text: (§1) The human MMP-1, -2, -3, -7, -8, -9, -10, -12, -13, and -14 were obtained from BIOMOL (Human MMP-9: SE-244, BIOMOL; Human MMP-14: SE-259, BIOMOL; Human MMP-1, -2, -8, -13: MMP MultiPack-1 from BIOMOL; Human MMP-3, -7, -10, -12: MMP MultiPack-2 from BIOMOL). The mouse MMP-2 and -9 were from R&D (Mouse MMP-9: 909-MM, R&D Mouse MMP-2: 924-MP, R&D). The substrate was Mca-Pro-Lys-Pro-Leu-Ala-Leu-Dap(Dnp)-Ala-Arg-NH2 (SEQ ID NO: 951)(M-2225, Bachem) for human MMP-3, and Mca-Lys-Pro-Leu-Gly-Leu-Dap(Dnp)-Ala-Arg-NH2 (SEQ ID NO: 952)(M-2350, Bachem) for all the other enzymes. The substrate concentration in the assay was 10 μM.

human MMP-2 = target: T1, human MMP-2; experiment: MMP selectivity panel, residual enzyme activity; type: biochemical; conditions: FIG. 5
Source text: as §1

human MMP-12 = target: T4, human MMP-12 (Homo sapiens, UniProt P39900); experiment: MMP selectivity panel, residual enzyme activity; type: biochemical; conditions: FIG. 5
T4 construct: purchased BIOMOL MMP MultiPack-2
Procedure: (§2) After sequencing analysis, the phage display were converted into sFabs and then into IgG1s. Their ability to inhibit MMP-9 and other MMPs (1, 3, 7, 8, 9, 10, 12, 13, 14) was determined by usual means. Compounds were initially screened at 1 μM against MMP-9 and those compounds that inhibited MMP-9>80% were subjected to additional screens against purified recombinant human MMPs. For these additional screens, an IC50 value was determined.
as §1

human MMP-14 = target: T5, human MMP-14 (Homo sapiens, UniProt P50281); experiment: MMP selectivity panel, residual enzyme activity; type: biochemical; conditions: FIG. 5
T5 construct: purchased BIOMOL SE-259
Procedure: as §2, §1

human MMP-3 = target: T6, human MMP-3 (Homo sapiens, UniProt P08254); experiment: MMP selectivity panel, residual enzyme activity; type: biochemical; conditions: FIG. 5
T6 construct: purchased BIOMOL MMP MultiPack-2
Procedure: as §2, §1

human MMP-8 = target: T7, human MMP-8 (Homo sapiens, UniProt P22894); experiment: MMP selectivity panel, residual enzyme activity; type: biochemical; conditions: FIG. 5
T7 construct: purchased BIOMOL MMP MultiPack-1
Procedure: as §2, §1

MMP-9 [2] = target: T2, MMP-9; experiment: Inhibition of human MMP-9 activity, fluorogenic peptide substrate (IC50 / residual activity at 1 μM antibody); type: biochemical; set-up: Human MMP-9 catalytic domain (BIOMOL, SE-244); purchased BIOMOL SE-244
Procedure: MMP-9 binding proteins can be characterized in assays that measure their modulatory activity toward MMP-9 or fragments thereof in vitro or in vivo. For example, MMP-9 can be combined with a substrate such as Mca-Pro-Leu-Ala-Cys(Mob)-Trp-Ala-Arg-Dap(Dnp)-NH2 (SEQ ID NO: 12) under assay conditions permitting cleavage by MMP-9. The assay is performed in the absence of the MMP-9 binding protein, and in the presence of increasing concentrations of the MMP-9 binding protein. The concentration of binding protein at which 50% of the MMP-9 activity (e.g., binding to the substrate) is inhibited is the IC50 value (Inhibitory Concentration 50%) or EC50 (Effective Concentration 50%) value for that binding protein.
as §2
Target sequence in this assay (P14780 107-444 limits assumed): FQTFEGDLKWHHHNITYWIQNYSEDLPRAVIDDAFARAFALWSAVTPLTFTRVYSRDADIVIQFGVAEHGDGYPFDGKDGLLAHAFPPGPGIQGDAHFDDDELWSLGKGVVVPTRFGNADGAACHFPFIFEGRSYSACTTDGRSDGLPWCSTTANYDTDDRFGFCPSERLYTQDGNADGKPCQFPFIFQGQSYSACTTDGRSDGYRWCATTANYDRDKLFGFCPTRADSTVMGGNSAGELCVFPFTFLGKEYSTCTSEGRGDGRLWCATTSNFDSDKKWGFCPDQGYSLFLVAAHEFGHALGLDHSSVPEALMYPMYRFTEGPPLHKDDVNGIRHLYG
The human MMP-1, -2, -3, -7, -8, -9, -10, -12, -13, and -14 were obtained from BIOMOL (Human MMP-9: SE-244, BIOMOL; Human MMP-14: SE-259, BIOMOL; Human MMP-1, -2, -8, -13: MMP MultiPack-1 from BIOMOL; Human MMP-3, -7, -10, -12: MMP MultiPack-2 from BIOMOL). […]

T3 sequence (P41245 108-730): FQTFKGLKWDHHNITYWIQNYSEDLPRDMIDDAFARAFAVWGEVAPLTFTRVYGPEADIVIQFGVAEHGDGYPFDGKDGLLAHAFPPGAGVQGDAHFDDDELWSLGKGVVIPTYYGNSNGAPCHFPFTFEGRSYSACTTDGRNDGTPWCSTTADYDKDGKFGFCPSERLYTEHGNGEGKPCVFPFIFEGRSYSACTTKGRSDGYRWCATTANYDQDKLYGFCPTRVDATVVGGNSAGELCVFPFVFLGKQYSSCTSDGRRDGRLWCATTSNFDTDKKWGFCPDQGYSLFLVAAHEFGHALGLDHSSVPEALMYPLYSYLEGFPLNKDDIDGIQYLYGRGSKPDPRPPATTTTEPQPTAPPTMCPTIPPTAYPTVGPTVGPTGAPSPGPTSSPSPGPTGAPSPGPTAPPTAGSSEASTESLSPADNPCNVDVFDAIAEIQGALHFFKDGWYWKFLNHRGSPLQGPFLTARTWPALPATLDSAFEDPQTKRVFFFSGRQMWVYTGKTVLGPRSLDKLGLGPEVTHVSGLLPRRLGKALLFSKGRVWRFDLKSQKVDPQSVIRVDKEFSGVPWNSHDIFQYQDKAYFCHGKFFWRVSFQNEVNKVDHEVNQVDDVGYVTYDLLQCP
T6 sequence (P08254 100-477): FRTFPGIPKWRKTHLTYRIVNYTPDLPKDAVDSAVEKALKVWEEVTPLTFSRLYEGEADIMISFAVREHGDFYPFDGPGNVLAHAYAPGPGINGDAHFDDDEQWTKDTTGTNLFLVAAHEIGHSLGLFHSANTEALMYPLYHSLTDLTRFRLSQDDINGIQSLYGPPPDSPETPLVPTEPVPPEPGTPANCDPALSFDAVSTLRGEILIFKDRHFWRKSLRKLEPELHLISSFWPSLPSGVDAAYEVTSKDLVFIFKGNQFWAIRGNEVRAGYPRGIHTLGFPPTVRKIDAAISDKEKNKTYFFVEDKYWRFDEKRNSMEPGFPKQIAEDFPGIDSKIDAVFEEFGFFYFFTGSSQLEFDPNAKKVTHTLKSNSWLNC
T4 sequence (P39900 106-470): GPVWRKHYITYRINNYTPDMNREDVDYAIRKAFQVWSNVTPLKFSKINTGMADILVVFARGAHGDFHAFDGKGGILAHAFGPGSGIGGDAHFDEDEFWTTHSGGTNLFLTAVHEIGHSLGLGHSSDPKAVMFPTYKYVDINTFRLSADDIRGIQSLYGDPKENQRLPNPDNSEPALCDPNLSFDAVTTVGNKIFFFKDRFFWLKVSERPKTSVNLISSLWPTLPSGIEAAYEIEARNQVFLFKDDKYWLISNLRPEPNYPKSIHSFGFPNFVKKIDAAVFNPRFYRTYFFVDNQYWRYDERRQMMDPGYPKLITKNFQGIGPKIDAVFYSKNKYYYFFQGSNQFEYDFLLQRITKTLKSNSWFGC
T7 sequence (P22894 101-467): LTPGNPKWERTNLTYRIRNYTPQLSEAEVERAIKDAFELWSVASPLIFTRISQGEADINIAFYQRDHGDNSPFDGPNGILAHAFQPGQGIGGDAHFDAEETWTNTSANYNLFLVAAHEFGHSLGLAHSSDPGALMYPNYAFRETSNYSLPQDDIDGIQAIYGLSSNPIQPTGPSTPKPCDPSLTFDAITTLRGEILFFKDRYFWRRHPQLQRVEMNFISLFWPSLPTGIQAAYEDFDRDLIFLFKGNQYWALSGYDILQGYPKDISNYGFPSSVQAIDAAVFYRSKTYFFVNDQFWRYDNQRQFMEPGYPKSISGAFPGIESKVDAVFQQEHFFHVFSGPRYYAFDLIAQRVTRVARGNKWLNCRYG

Molecule | Difference from reference (MMP-9 [1]; Flexchip spot signal, Fabs from the R0017 plate) | ka (MMP-9 [1]; Flexchip, Fabs) | kd (MMP-9 [1]; Flexchip, Fabs) | Inhibition of mouse MMP-9 activity (in words) (mouse MMP-9) | Inhibition of human MMP-2 (in words) (human MMP-2) | Inhibition of human MMP-12 (in words) (human MMP-12) | Inhibition of human MMP-14 (in words) (human MMP-14) | Inhibition of human MMP-3 (in words) (human MMP-3) | Inhibition of human MMP-8 (in words) (human MMP-8) | Inhibition of human MMP-9 activity (in words) (MMP-9 [2]; FIG. 5 / Example 12) | Selectivity for MMP-9 versus other MMPs tested (MMP-9 [2]; compared to the other human and murine MMPs tested)
TIMP-1: endogenous MMP inhibitor, control spot on Flexchip | 845.8099 | No Binding * | No Binding * |  |  |  |  |  |  |  | 
539A-M0240-B03: Parental isolate (sFab; IgG); h/mMMP-9 antibody inhibitor (antibody, V domains shown) VL: QYELTQPRSVSGSPGQSVTISCTGTSSDVGGYNYVSWYQQHPGKAPKLMIYDVSKRPSGVPDRFSGSKSGNTASLTISGLQAEDEADYYCCSYAGSYTLVFGGGTKLTVL VH: EVQLLESGGGLVQPGGSLRLSCAASGFTFSTYQMVWVRQAPGKGLEWVSVIYPSGGPTVYADSVKGRFTISRDNSKNTLYLQMNSLRAEDTAVYYCARGEDYYDSSGPGAFDIWGQGTMVTVSS |  |  |  | inhibits; also recorded: decrease or inhibit | not | not | not | not | not | inhibits; also recorded: decrease or inhibit | selective inhibitor of MMP-9
